B1: Focal adhesion kinase 1 (Gallus gallus (Chicken)), Q00944 (parent)
chain: MAAAYLDPNLNHTPSSSAKTHLGTGMERSPGAMERVLKVFHYFENSSEPTTWASIIRHGDATDVRGIIQKIVDCHKVKNVACYGLRLSHLQSEEVHWLHLDMGVSNVREKFELAHPPEEWKYELRIRYLPKGFLNQFTEDKPTLNFFYQQVKNDYMLEIADQVDQEIALKLGCLEIRRSYGEMRGNALEKKSNYEVLEKDVGLRRFFPKSLLDSVKAKTLRKLIQQTFRQFANLNREESILKFFEILSPVYRFDKECFKCALGSSWIISVELAIGPEEGISYLTDKGANPTHLADFNQVQTIQYSNSEDKDRKGMLQLKIAGAPEPLTVTAPSLTIAENMADLIDGYCRLVNGATQSFIIRPQKEGERALPSIPKLANNEKQGVRSHTVSVSETDDYAEIIDEEDTYTMPSTRDYEIQRERIELGRCIGEGQFGDVHQGIYMSPENPAMAVAIKTCKNCTSDSVREKFLQEALTMRQFDHPHIVKLIGVITENPVWIIMELCTLGELRSFLQVRKFSLDLASLILYAYQLSTALAYLESKRFVHRDIAARNVLVSATDCVKLGDFGLSRYMEDSTYYKASKGKLPIKWMAPESINFRRFTSASDVWMFGVCMWEILMHGVKPFQGVKNNDVIGRIENGERLPMPPNCPPTLYSLMTKCWAYDPSRRPRFTELKAQLSTILEEEKLQQEERMRMESRRQVTVSWDSGGSDEAPPKPSRPGYPSPRSSEGFYPSPQHMVQPNHYQVSGYSGSHGIPAMAGSIYPGQASLLDQTDSWNHRPQEVSAWQPNMEDSGTLDVRGMGQVLPTHLMEERLIRQQQEMEEDQRWLEKEERFLVMKPDVRLSRGSIEREDGGLQGPAGNQHIYQPVGKPDHAAPPKKPPRPGAPHLGSLASLNSPVDSYNEGVKIKPQEISPPPTANLDRSNDKVYENVTGLVKAVIEMSSKIQPAPPEEYVPMVKEVGLALRTLLATVDESLPVLPASTHREIEMAQKLLNSDLAELINKMKLAQQYVMTSLQQEYKKQMLTAAHALAVDAKNLLDVIDQARLKMISQSRPH

The source of these data is IntAct's records for PubMed 10512882.

This test covers variants of B1. The conditions noted are these: with src_chick SRC.
For Y397F;K454R, the “effect of a mutation on the interaction” value was “disrupting interaction”. As to K454R, the “effect of a mutation on the interaction” value was “decreasing interaction”. Turning to Y576F;Y577F, the “effect of a mutation on the interaction” value is “decreasing interaction”. Y397F: the “effect of a mutation on the interaction” value is “disrupting interaction”.
